From PMC8752090

Molecular target: adaptor protein complex 2 (AP-2), P17426;Q9DBG3;P84091;P62743
Test: GST pull-down from brain lysate, immunoblot band quantification
Details: chain shown with the change; n = 3 independent experiments; parent: est. 1.0; read off a plot

B1: GST-VGLUT1 C-terminus-WT (cytoplasmic C-terminal region of VGLUT1, a.a. 496-560), Q3TXX4 F510A; V511A (protein)
chain: PWAEPEEMSEEKCGAAGHDQLAGSDESEMEDEAEPPGAPPAPPPSYGATHSTVQPPRPPPPVRDY
With B1 as the binder, how does the ratio to parent read?
Its ratio to parent is 0.19.
